Values of other authors, collected in patent US5494894A, “Agent for the regulation of the appetite or a sleeping agent” (Erlanson-Albertsson; Charlotte, priority 1986, dated 1996).

System: patients
Settings: administered intravenously; cited from earlier work

B1: cholocystokinin (peptide, UniProt P06307 21-115, looked up)
Cholecystokinin: QPVPPADPAGSGLQRAEEAPRRQLRVSQRTDGESRAHLGALLARYIQQARKAPSGRMSIVKNLQNLDPSHRISDRDYMGWMDFGRRSAEEYEYPS
modifications: Cholecystokinin
notes: hormone which stimulates the secretion of pancreatic enzymes
  Feeling of satiety: earlier feeling of satiety
